Data taken from patent publication US20240093310A1 (Dana-Farber, published 2024).

Tests used:
wild-type human C-RAF = molecular target: T1, wild-type human C-RAF (human, UniProt P04049 1-648); assay: C-RAF immunoprecipitation, 14-3-3ζ immunoblot, A375 cells with and without 2 µM vemurafenib (FIG. 7B)
T1 construct: In the homodimerization assays the copies carried a His/V5 tag or a Flag tag; also called WT-C-RAF; C-RAF (WT)

[1] = molecular target: T2, C-RAF S257P resistance mutant (human, UniProt P04049 1-648); assay: C-RAF immunoprecipitation, 14-3-3ζ immunoblot, 293T and A375 cells, no RAF inhibitor (FIG. 7A, 7B)
T2 construct: His/V5- or Flag-tagged in the homodimerization assays

[2] = molecular target: T3, C-RAF P261T resistance mutant (human, UniProt P04049 1-648); assay: as above
T3 construct: His/V5- or Flag-tagged in the homodimerization assays

[3] = molecular target: T4, C-RAF G361A resistance mutant (human, UniProt P04049 1-648); assay: as above
T4 construct: His/V5- or Flag-tagged in the homodimerization assays; also called 361G>A

Measured: binding result

B1: 14-3-3 ζ (other, UniProt P63104 1-245, looked up)
chain: MDKNELVQKAKLAEQAERYDDMAACMKSVTEQGAELSNEERNLLSVAYKNVVGARRSSWRVVSSIEQKTEGAEKKQQMAREYREKIETELRDICNDVLSLLEKFLIPNASQAESKVFYLKMKGDYYRYLAEVAAGDDKKGIVDQSQQAYQEAFEISKKEMQPTHPIRLGLALNFSVFYYEILNSPEKACSLAKTAFDEAIAELDTLSEESYKDSTLIMQLLRDNLTLWTSDTQGDEAEAGEGGEN
notes: The Western blot methods list a 14-3-3ζ antibody (Cell Signaling)
binds: wild-type human C-RAF | [1] | [2] | [3]
